Experimental findings from PMC9221443, “Peptidomimetics Based on C-Terminus of Blm10 Stimulate Human 20S Proteasome Activity and Promote Degradation of Proteins” (Biomolecules, 2022) are described below.

The test concerns 20S proteasome (h20S). As to the kind of experiment: Microscale thermophoresis (MST) protein-proteasome interaction. The conditions noted are these: NT-647-labeled protein titrated with h20S 0.06-1965 nM; 22 °C; 20 mM Tris-HCl pH 7.2; three independent experiments; read-out: EC50 of binding to 20S proteasome (MST, Hill fit). It is filed as binding, human. Here is the method:
Enolase, α-synuclein and their oxidized forms were labeled using Monolith Protein Labeling Kit RED-NHS 2nd Generation Amine Reactive, NT-647 (Nanotemper, München, Germany), according to the manufacturer instructions. The labeling process was carried out in 50 mM HEPES buffer, pH 7.4, in the protein:NT-647 1:2 ratio. The incubation time was 60 min for enolase and 30 min for α-synuclein, at 21 °C. After labeling, the excess of the fluorescent reagent was removed using the columns provided by the manufacturer and 20 mM Tris-HCl buffer, pH 7.2, containing 200 mM NaCl and 10% glycerol. The obtained labeled proteins were concentrated on Amicon 3K spin-columns (Merck, Darmstadt, Germany). Protein concentrations were determined by measuring absorbance at 280 nm, using UV/Vis spectrophotometer (DU®730 Beckman Coulter).
Direct interactions between the fluorescently labeled, native and oxidized, proteins and the 20S proteasome were examined using microscale thermophoresis (NanoTemper Monolith NT.115). The labeled protein concentration was kept constant at 250 nM for native and oxidized α-synuclein and 125 nM and 25 nM for native and oxidized enolase, respectively. […] The EC50 values were calculated based on results obtained in three independent experiments.

B1: oxidized enolase: human enolase 2 incubated with 0.5% H2O2 for 2 h at 30 °C (protein, UniProt P09104 2-434, looked up)
Gamma-enolase: SIEKIWAREILDSRGNPTVEVDLYTAKGLFRAAVPSGASTGIYEALELRDGDKQRYLGKGVLKAVDHINSTIAPALISSGLSVVEQEKLDNLMLELDGTENKSKFGANAILGVSLAVCKAGAAERELPLYRHIAQLAGNSDLILPVPAFNVINGGSHAGNKLAMQEFMILPVGAESFRDAMRLGAEVYHTLKGVIKDKYGKDATNVGDEGGFAPNILENSEALELVKEAIDKAGYTEKIVIGMDVAASEFYRDGKYDLDFKSPTDPSRYITGDQLGALYQDFVRDYPVVSIEDPFDQDDWAAWSKFTANVGIQIVGDDLTVTNPKRIERAVEEKACNCLLLKVNQIGSVTEAIQACKLAQENGWGVMVSHRSGETEDTFIADLVVGLCTGQIKTGAPCRSERLAKYNQLMRIEEELGDEARFAGHNFRNPSVL
modifications: H2O2-oxidized
notes: human enolase 2 incubated with 0.5% H2O2 for 2 h at 30 °C
On to B1, for which the EC50 turned out to be 87.8 ± 12.9 nM.
